Assay results reported in the supplement of paper PMC10567573.

B1: ZNF8 (parent)
chain: RIHTGERPYMCKECGKAFSQNSSL

Variants of: B1
Test: protein stability index of a GFP-peptide fusion (GPS, HEK-293T) (PSI 1-6); higher = more stable
Conditions: c terminus: a fixed tail appended
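Further: lentivirally expressed fusions sorted by FACS into six bins by GFP to DsRed ratio, PSI derived from sequencing read proportions per bin multiplied by bin number.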

Protein stability index, by site and new letter:
R7: D 3.36 | P 2.44 | N 3.38 | C 3.77 | K 2.35 | F 2.99 | I 2.6 | E 3.85 | T 4 | V 2.37 | G 3.23 | Q 3.2 | Y 2.39 | S 2.53 | H 3.36 | W 2.9 | M 2.77 | A 2.6 | L 2.65
C11: H 2.75 | A 2.73 | F 2.36 | I 2.19 | K 3.08 | E 3.42 | D 2.78 | G 3.28
H3: Y 2.33 | F 1.9 | L 2.25 | P 2.38 | T 2.8 | E 3.1 | R 1.96 | N 2.81 | A 1.99 | K 2.46 | Q 2.47 | C 3.28 | G 3.12 | V 2.05 | I 2.74 | M 2.49 | D 2.91 | W 2.05 | S 2.38
M10: C 3.11 | S 2.26 | Y 2.24 | G 2.7 | A 2.64 | E 3.1 | T 3.03 | Q 3.16 | W 2.3 | I 2.69 | H 2.52 | K 1.75 | D 2.84 | L 2.74 | P 2.62 | F 2.31 | V 2.24 | N 2.12 | R 1.95
P8: D 3.23 | G 2.53 | Y 2.62 | K 2.03 | I 2.43 | F 2.28 | T 2.96 | E 3.22 | A 2.75 | W 2.19 | M 2.98 | S 2.44 | Q 2.99 | V 2.67 | H 2.12 | N 2.04 | L 2.34 | C 2.31 | R 2.85
Y9: I 2.21 | V 2.71 | Q 2.75 | E 3.27 | C 4.27 | T 2.42 | P 2.48 | A 3.88 | R 2.02 | N 2.7 | D 3.29 | L 2.43 | K 1.83 | G 3.21 | M 2.6 | S 2.2 | H 2.86 | W 2.19 | F 3.21
E6: N 2.24 | S 1.33 | Y 1.88 | Q 2.2 | L 2 | H 2.36 | V 1.98 | P 2.34 | C 1.68 | D 2.28 | A 1.91 | F 2.44 | K 2.35 | G 1.5 | R 1.71 | W 2.27 | I 1.68 | M 2.7 | T 2.36
T4: R 2.04 | K 2.03 | C 3.04 | Y 2.1 | D 2.74 | V 2.59 | E 3.16 | N 2.91 | Q 3.24 | I 2.68 | P 3.3 | W 1.89 | A 2.21 | S 2.81 | F 2.42 | L 2.16 | M 1.88 | H 2.43 | G 2.19
I2: V 2.29 | Y 2.73 | Q 3.57 | T 1.74 | S 2.75 | R 2.94 | W 2.33
G5: I 1.83 | P 3.02 | K 2.5 | S 2.53 | Y 2.73 | H 2.63 | A 2.98 | R 2.13 | M 2.62 | W 2.49 | D 2.64 | N 2.44 | L 2.01 | Q 2.47 | E 3.37 | F 2.09 | C 3.78 | V 2.04 | T 2.31
